Test results published in a protein production outcome set (Wang et al. 2014).

Assay: label from the status in PepcDB records
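Further: failed if final PepcDB status was selected cloned or expressed and not failed if soluble or beyond.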

Sequence | protein production
MDTEIHNPHIPGGRPPSRPAIAALTFVIFMSLTLASWSVVQDLQERHENTRFDKRVAEVIHKIEHHFSGYEQVLKGALGHLLASPSVSRNEWRTYVNALRINDRYPGIHGIGFAKYIPRSGLAAHTEEVRAEGFPSYKVWPGTPRQEYTSIIYLEPFTGSNLRAFGYDMFSNAVRRAAMSRARDTGEVALTRKVKLVQETGEDIQAGVLMYLPYYGAANLPKTVEERRASLGGYVYAPFRMVDFVRATLGSELDILDLRIFDGKAMAEDSLLFDSVKHRSGPSPVPKFKRVIPISLYGQTWALEASSRPAFEKAIKNYEALLVLLGGFVVSMLTAMVSFVLSGNKEKAAALGHVNKKLLLAMEEQQATTRELSNAKLRTERILESITDAFYTLDREWRFTYVNKEAENLLQRNREDLLGRVCWEEFKETAGTTFDREYHRALMENRTVTFEEFYVPLDEWFEVHAYPSEEGLTVYFRDITERKESEQARQEAHVRIRQQASLLDKATDAIIVFGMDNCIEFWNQGAERLYGWTSEEVMGREVEMLYDNVAVFDEANRALLSSGEWRGELAQRRRDQSMLNVEAHWTLVRNDDGEPQAIFAINTDITQRKSAENEILHLALYDSLTGLPNRRLLLDRLGHALAVSARNQRMGALLFIDLDNFKLLNDTLGHDMGDLLLRQVAPRLSSCVRESDTVARLGGDEFVVILMGDFGEDHDEALTQISTICERIRSAFIQPFNLDPYIHHITPSIGIALFNDQSQTTNELLKRADLAMYQAKASGRNAMRFFDPDMQAAMNARAILESELYKSWERNEFILHYQLQVDSRGIIGAEALVRWQHPRRGLLPPSEFIPQAEETGLILPLGEWVLETACNQLASWALQPETVQLNLSVNVSSLQFCQPDFVEQVISILDRTGANPQRLKLELTESILVHDMDDTIAKMMTLKARGVGFALDDFGIGYSSLYYLKRLPLDWVKIDRSFVRDVLTDNNDATIVRTILLLAKSMGLAVIAEGVETGAQKDFLASHGCTAYQGYLFSRPLPLEQFERFVQPAAGGAV | failed
KKYSYAVTTCIKHINKNVYDGISLNELANHLEITPTYLSKLFKKEMGITLSEYIQRERVEEAKKLLTLTTYSLSDICAWLNFNDQSYFIRVFKKITSMTPRQYREKYTV | failed
MAHACVSTSASSLRFTAGFVSASPNGSSFDSPKLSLPFEPLRSRKTNKLVSDRKNWKNSTPKAVYSGNLWTPEIPSPQGVWSIRDDLQVPSSPYFPAYAQGQGPPPMVQERFQSIISQLFQYRIIRCGGAVDDDMANIIVAQLLYLDAVDPTKDIVMYVNSPGGSVTAGMAIFDTMRHIRPDVSTVCVGLAASMGAFLLSAGTKGKRYSLPNSRIMIHQPLGGAQGGQTDIDIQANEMLHHKANLNGYLAYHTGQSLEKINQDTDRDFFMSAKEAKEYGLIDGVIMNPLKALQPLAAA | failed
MKFYIIRHAKVNMRWPKKCTSDEFNQACKKYDGADIVAFQGSLELPVSNIYTSELIRTKQTAQQLFPLQSYQIDKRLNEVPLKAAFSSKIKLPLIFWNILGRLQWLFNSSKQEGIKASKERAEKFCDDLIYKGEDAILITHGFFMITLLKELKKRGFIEKDNGFNFDNLQVIEVKKRLLVY | failed
LPSFRHKVFALVLVGVFVGLGAYLVYMSKAYSYLSDDPRVCINCHVMGPYYATWQHSSHAMRATCNDCHVPHNSIFSKYYFKASDGLRHSYVFTMRNEPQRMQAISASQAVIYDNCVRCHAQLNQEFVRTGMLTRADIRTAEEKACWDCHRDVPHGGKNS | failed
MSIDFYNQNASSFYASTVEVDSSSLLEQFTPYLPKGGSVLDAGCGSGRDSKRLIELGFHVDAFDASAALATLAQQLLGKPVRVATFMQFTSTLQYDGIWACASLLHVSKASLPDAFAHLASMLKSGGAFYCSFKYGQGEVERDGRSFTHCDEALLAELLTGSPLVIDKVWLTLEHHHHHH | failed
MKRLIVSSSVVLFMFLCSITITSAENNSVKVAFIRHHNLWIKVDGKEIQITKGEYITGPKWSYDGEWLAYVKGKKQSILELYRLKDGKKVTPFHSEASNYQWSPTENIIAFIFTGTLNTFDVEKKNADFENVSAGVGDYAWYPDGKNFLVSSEAHLLPTGWTGAQLYEVQKDAHMNPHKMKHLYALPNEHDDFLALVASGFKWSPDQKWISFLAVPTASWSADSNTLCLVRADGSRFEKVDQMLLNAQWFQWAPSKNILAYIEGSGRVALENKHLKVKELPALQQNIFTPKGYVDWDFVWKNDRVIIVSRAKEAGIETPPEKRPLPSLYEVDSTSNAQHQITKKTNKQGDYHPIFMKKSNQLIWIRSDRKKADVWLAHKDRKQEKKWIENIDVPAWYYEKWNWGNVISVKEE | failed
SSSSSSVPAYLGDEDLTQETRALISSLPKEKGWLVSEIYEFQGLWHTQAILQGILICQKRFEAKDSDIILVTNPKSGTTWLKALVFALLNRHKFPVSSSGNHPLLVTNPHLLVPFLEGVYYESPDFDFSSLPSPRLMNTHISHLSLPESVKSSSCKIVYCCRNPKDMFVSLWHFGKKLAPEETADYPIEKAVEAFCEGKFIGGPFWDHILEYWYASRENPNKVLFVTYEELKKQTEVEMKRIAEFLECGFIEEEEVREIVKLCSFESLSNLEVNKEGKLPNGIETKTFFRKGEIGGWRDTLSESLAEEIDRTIEEKFKGSGLKFSS | not failed
MTDTNTLLVTSLEEGIGKTAITLALATRAHDAGYDVGYMKPKGTRLRSAVGKTRDEDPMLARELLDLETDLHDMEPIVYSPTFIQEAIRGREDPDDLRERLQEGIETCSDGTDMLLVEGSSDLATGSIVDLTDIDIAELLDARVLLVTGYDTPSDTDEILSAAEAIGDRLDGVLFNGVTDATVDELADDVVPFLEGEGIPVHGILPRDRSLAGVTVADLARNLGADILTGDANTDVHVERFSVGAMSGSSALERFRRTRDAVVVTGGDRSEVQTAALEASGINALLLTGGFQPASAVIGQAAEKNVPVLSVQSDTRTTIDRVEEVLRTGQTRNEATVDRMRTLLDDGVDVESLLSVDLLEHHHHHH | not failed
MPRKKKTVEDPALTRALKVMEAGALPDADLAAEFATLAESYGKLLRKFNKTLVISDAYEAQHQAMAKKLEEATWKYRQLKDVALPICMYCKKIRSDDDYWQRLETFFCNHADIMFSHGICPDCIKTAYEKMGMNRRAMPLPDAAVTGQPAASPERQPVEDDALREMRALVRRSAFDGSPVAPEVEQFVEKYGKLLRRFSKIVSISDSYQSQLRELNARLELMARTDLLTGLANHWEMVMRLAAEQSRSERNGKVFSIVLADIDHFKKVNDTHGHQAGDRVIRGIADTLRTNIRREDICSRWGGEEFLIILPEADLPRAGAVAAKLLAKVRNTVVPWDGRDIRVTVSIGYGTSEPGMSVDELIRRVDDALYSAKAAGRDRFAAAGSRADV | failed
MSLRARIHSPEEHGSRGEDGHLVASYRAKLLEEIDLAEMSALATAERRARLERVLGHIISREGPVLSTVERSQLIRRVVDEALGLGILEPLLEDASITEIMVNGPDAIFVERAGRVEQLPLRFASHDQLMQTIERIVSTVNRRVDESNPMVDARLPSGERVNVIIPPLSLTGATLTIRRFPRSFTLQELIGLGSLDENMLYLLAGLVQARFNIIVSGATGTGKTTLLNALSGLIPESDRIITIEDSAELQLQQAHVIRLESRPPNVEGQGRITIRDLVRNSLRMRPDRIVVGEVRGGESLDMLQAMSTGHDGSLATVHANSAEDALMRLQTLASMSDVEIPFVALHDQINSSVDVLIQLTRFADGARRITEIALLASHGGEPYRLATVARFNARPMSADGRVVGAYEYHPLPHRTAERLYMAGQPIPQAFGVAHTPDQLTTREAR | failed
MNRLFGNGRCLDVAIDHGVCNEPSFLDGLENMPAVVKALVDARPDAIQMNYGQADLLQDLPGKDKPALVMRIDMGNPYNRIRHRDMWAVLQNEAEPLVGALQMDAACVVVNLFMLPDEPDLFRQCVQNISRVRADCEKYGMPLMIEPLVMQPVTERGGYMVDGDADKIVTLTRLAREMGADIVKADPTTNAEDFHRVVEAARCPVLVRGGGKEDLAAVFAKSTALMRQGAMGMVYGRNIYQHANPSAVVRGLMAIIHQDASGEEAVAIYRQG | failed
MKHMKTFVIIGLSNLGIHLLEDLSRLDCQIIIIDTSKELIEEYDVISTESFVVEQFTKNALKRIIPVDTDAVVIDFDDDLGKSALVTHYCNLLGLKEICVKTENRDDAEILKTLGATKIIFPSKDAARRLTPLLVSPNLSTYNIIGYDIIVAETVIPKEYVGKTLFEADLRRECGITVIAVRNLSNSRYEFVDGDYFFLKDDKIVICGKPDSIENFTNNKDLIKDLISGSKEDENLNKDAEKKSRFLGIFNFMKIFQKDRKDN | failed
MSETVTQVNETTQQIVRSRTCGLKDFYIALVQSNTATAYTAGTPVKLARAIKAKIDEKWTSEKIYSDDNTEEVITSYEGTDVELEINALAPQDRVILFGQLYEKGFLRKSSDDRAPEVAVGWRERKLNGKYEFKWLYVGKFAEGISEEASTLEHHHHHH | not failed
YPLRKTQAVQSTQFDSRHSFVTKLKPYADKAARMLGVDSSLLIAQAALETGWGQKMVKNARGNSNNLFNIKADRSWQGDKVATQTLEYHNNVPVVEKAAFRSYASFDESFNDYVRFLENNPRYTNALDHGGNSERFIHGIHRAGYATDPQYADKVLRVKAQIDQMNL | failed
MLLTREYIDKAFWQKLIAIGLPVSLQSMLFALLGVVDIFMVSLLGESATAAVGVGNRIFFFNLAVVFGLCGAVTVLASQYYGSGNMAGIRRTLAQSWCISILVTLPFIVLYAIFDEEIVSFMSDDPEYVTYARDYLVVTGFSLIATAIVVPIEAVLRSVGQTKLATNVSISAIVVNAVLNSVLIFGLFGFPQWGVFGAAVGTFVSRFFQTAVLIYFFYNRYAHLIPTKFDWAQGRLKQYRQKYFKVSLPMLVHDALWTGGLIVYSIIYGQLGVSELAIISFLSPIEGVLISTFMGFAVAASVLLGNDIGAKHYDRVEKTAWWYVLTSAILATLLFFLVWLSSPLIHHLLVLSPLTDAEMALNVCLVMALGMILRVFNMVGIGGVLKSGADIRYSIFIDTFGQWAIGIPLTYYTGMVLGLPLHFVLMSLLAEEFVKGVLTTYRIQSKRWINNMVEDDQTVTA | failed
MLNDILTGYGIFILEILTILLLILAVVGLIISYRQHNKSKVGELEIKDLSEEFNEQVRLLRDFNLSEEEQKQRTKAEKKAEKQNAKKRKEKLKKGETLEDEKKACVYVLDFCGDISASETTALREEISAILNVAKSEDEVLLRLESPGGIVHNYGFAASQLSRLKQKGIKLTVAVDKVAASGGYMMACVADKIVSAPFAVIGSIGVVAQIPNVHRLLKKHDVDVDVMTAGEFKRTVTVLGENTEKGKQKFQQELEETHKLFKQFVSQNRPCLDIDKIATGEHWFGQQAIALQLVDEISTSDDLILEKMKEKQVLNVKYRLKKSLIKKFGRQAEESAINIIHRYSTKQSRDFMYLEHHHHHH | failed
MAIIPGVEQKPMSSNLESRIDQGTGREPADMVLKGGRFFDLVTGELVASDIAICGDTVVGTCGDYKGRHEIDISGKIVVPGFIDTHLHIESSLVTPHEFDRCVLPYGVTTAICDPHEIANVLGAEGLQFFLDSAMETIMDIRVQLSSCVPATHLETSGADLPIEKLLPFRNHPKVIGLAEFMNFPGVIHKDPVCMAKLEAFQGQHIDGHAPLLSGAALNGYLAAGIRTEHECTSAAEALEKIRKGMHILVREGSVSKDLHALMPIITERLSPYLALCTDDRNPLDIAEQGHLDYMIRTAIASGVEPLAIYRAASISAAKAFGLRDRGLVAPGWRADLVVIDTLQNCKASMVLSGGRLVDDALFATRKPVAPVGLDSVKARPVLASHFGVPVTEGETPVMGVLPGKIITEHRRYKLPTDGNQTTVDLENDIIKVAVIERHGKNGNHANGFVQGFGLKKGAIASTVGHDSHNICVVGVSEDDMALAANRLGDIKGGFVVVEDGRVTGEIALPVAGLMSLEPYETVRDTLHTLRKAAYALGTTLEEPFLQVAFLPLPVIPHLKISDMGMVDVDRFALI | failed
SQFVLQDLQDATLGSLLSSLMQHCDPPQRKYPLEKGTPPPWWPTGNEEWWVKLGLPKSQSPPYRKPHDLKKMWKVGVLTAVINHMLPDIAKIKRHVRQSKCLQDKMTAKESAIWLAVLNQEESLIQQ | not failed
